Results published in patent publication US20230212549A1 (3B PHARMACEUTICALS, published 2023).
Numbered stars: 1 amine (or outer) side, 2 acyl side, 3 side chain; on linkers, the order of the positions; unused ones are H or OH. Bridge positions count the residues as written; N and C are the ends. Square brackets hold non-standard residues; d marks the D form. Primed or numbered codes have the meaning given here. * marks the point of attachment. Ttds″ = 1,13-diamino-4,7,10-trioxatridecan-succinamic acid spacer, O=C(CCC(=O)[*:2])NCCCOCCOCCOCCCN[*:1]; Ttds(4) = spacer between chelator and peptide, O=C(CCC(=O)[*:2])NCCCOCCOCCOCCCN[*:1]; DOTA = O=C(O)CN1CCN(CC(=O)O)CCN(CC(=O)*)CCN(CC(=O)O)CC1; mXylylene = c1cc(C[*:1])cc(C[*:2])c1; Pentanesulfonyl = CCCCCS(=O)(=O)*; 4Pal = N[C@@H](Cc1ccncc1)C(=O)O; 3Amb = NCc1cccc(C(=O)O)c1; 4Amb = NCc1ccc(C(=O)O)cc1; Nle = CCCC[C@H](N)C(=O)O; Hexanoyl = CCCCCC(=O)*; NH(CH2)5NH2 = NCCCCCN*; Omp = not defined here; GABA = NCCCC(=O)O

B1: Hex-[Cys(3MeBn)-Pro-Pro-Thr-Glu-Phe-Cys]-Asp-NH2 (peptide)
peptide: Hexanoyl-CPPTEFCD-NH2
modifications: linker 1-7 via mXylylene
SMILES: CCCCCC(=O)N[C@H]1CSCc2cccc(c2)CSC[C@@H](C(=O)N[C@@H](CC(=O)O)C(N)=O)NC(=O)[C@H](Cc2ccccc2)NC(=O)[C@H](CCC(=O)O)NC(=O)[C@H]([C@@H](C)O)NC(=O)[C@@H]2CCCN2C(=O)[C@@H]2CCCN2C1=O
notes: also called 3BP-3288
B2: Hex-[Cys(3MeBn)-Pro-Pro-Thr-Glu-Phe-Cys]-Asp-Pamb-Arg-NH2 (peptide)
peptide: Hexanoyl-CPPTEFCD[4Amb]R-NH2
modifications: linker 1-7 via mXylylene
SMILES: CCCCCC(=O)N[C@H]1CSCc2cccc(c2)CSC[C@@H](C(=O)N[C@@H](CC(=O)O)C(=O)NCc2ccc(C(=O)N[C@@H](CCCNC(=N)N)C(N)=O)cc2)NC(=O)[C@H](Cc2ccccc2)NC(=O)[C@H](CCC(=O)O)NC(=O)[C@H]([C@@H](C)O)NC(=O)[C@@H]2CCCN2C(=O)[C@@H]2CCCN2C1=O
notes: also called 3BP-3301
B3: Hex-[Cys(3MeBn)-Pro-Pro-Thr-Glu-Phe-Cys]-Asp-Mamb-Arg-NH2 (peptide)
peptide: Hexanoyl-CPPTEFCD[3Amb]R-NH2
modifications: linker 1-7 via mXylylene
SMILES: CCCCCC(=O)N[C@H]1CSCc2cccc(c2)CSC[C@@H](C(=O)N[C@@H](CC(=O)O)C(=O)NCc2cccc(C(=O)N[C@@H](CCCNC(=N)N)C(N)=O)c2)NC(=O)[C@H](Cc2ccccc2)NC(=O)[C@H](CCC(=O)O)NC(=O)[C@H]([C@@H](C)O)NC(=O)[C@@H]2CCCN2C(=O)[C@@H]2CCCN2C1=O
notes: also called 3BP-3324
B4: Hex-[Cys(3MeBn)-Pro-Pro-Thr-Glu-Phe-Cys]-Asp-His-Ppa-arg-Ttds-Lys(DOTA)-NH2 (peptide)
peptide: Hexanoyl-CPPTEFCDH[4Pal][dR][Ttds″]K(DOTA)-NH2
modifications: linker 1-7 via mXylylene
SMILES: CCCCCC(=O)N[C@H]1CSCc2cccc(c2)CSC[C@@H](C(=O)N[C@@H](CC(=O)O)C(=O)N[C@@H](Cc2c[nH]cn2)C(=O)N[C@@H](Cc2ccncc2)C(=O)N[C@H](CCCNC(=N)N)C(=O)NCCCOCCOCCOCCCNC(=O)CCC(=O)N[C@@H](CCCCNC(=O)CN2CCN(CC(=O)O)CCN(CC(=O)O)CCN(CC(=O)O)CC2)C(N)=O)NC(=O)[C@H](Cc2ccccc2)NC(=O)[C@H](CCC(=O)O)NC(=O)[C@H]([C@@H](C)O)NC(=O)[C@@H]2CCCN2C(=O)[C@@H]2CCCN2C1=O
notes: also called 3BP-3277
B5: Ac-Met-[Cys(3MeBn)-Pro-Pro-Thr-Glu-Phe-Cys]-Asp-His-Phe-Arg-Asp-NH2 (peptide)
peptide: Ac-MCPPTEFCDHFRD-NH2
modifications: linker 2-8 via mXylylene
SMILES: CSCC[C@H](NC(C)=O)C(=O)N[C@H]1CSCc2cccc(c2)CSC[C@@H](C(=O)N[C@@H](CC(=O)O)C(=O)N[C@@H](Cc2c[nH]cn2)C(=O)N[C@@H](Cc2ccccc2)C(=O)N[C@@H](CCCNC(=N)N)C(=O)N[C@@H](CC(=O)O)C(N)=O)NC(=O)[C@H](Cc2ccccc2)NC(=O)[C@H](CCC(=O)O)NC(=O)[C@H]([C@@H](C)O)NC(=O)[C@@H]2CCCN2C(=O)[C@@H]2CCCN2C1=O
notes: also called 3BP-2975
B6: Hex-[Cys(3MeBn)-Pro-Pro-Thr-Glu-Phe-Cys]-Asp-Pamb-Arg-NH2 (peptide)
peptide: Hexanoyl-CPPTEFCD[4Amb]R-NH2
modifications: linker 1-7 via mXylylene
SMILES: CCCCCC(=O)N[C@H]1CSCc2cccc(c2)CSC[C@@H](C(=O)N[C@@H](CC(=O)O)C(=O)NCc2ccc(C(=O)N[C@@H](CCCNC(=N)N)C(N)=O)cc2)NC(=O)[C@H](Cc2ccccc2)NC(=O)[C@H](CCC(=O)O)NC(=O)[C@H]([C@@H](C)O)NC(=O)[C@@H]2CCCN2C(=O)[C@@H]2CCCN2C1=O
notes: also called 3BP-3301
B7: Ac-[Cys(3MeBn)-Pro-Pro-Thr-Glu-Phe-Cys]-Asp-His-Phe-Arg-Asp-NH2 (peptide)
peptide: Ac-CPPTEFCDHFRD-NH2
modifications: linker 1-7 via mXylylene
SMILES: CC(=O)N[C@H]1CSCc2cccc(c2)CSC[C@@H](C(=O)N[C@@H](CC(=O)O)C(=O)N[C@@H](Cc2c[nH]cn2)C(=O)N[C@@H](Cc2ccccc2)C(=O)N[C@@H](CCCNC(=N)N)C(=O)N[C@@H](CC(=O)O)C(N)=O)NC(=O)[C@H](Cc2ccccc2)NC(=O)[C@H](CCC(=O)O)NC(=O)[C@H]([C@@H](C)O)NC(=O)[C@@H]2CCCN2C(=O)[C@@H]2CCCN2C1=O
notes: also called 3BP-3202
B8: Hex-[Cys(3MeBn)-Pro-Pro-Thr-Glu-Phe-Cys]-Asp-Arg-NH2 (peptide)
peptide: Hexanoyl-CPPTEFCDR-NH2
modifications: linker 1-7 via mXylylene
SMILES: CCCCCC(=O)N[C@H]1CSCc2cccc(c2)CSC[C@@H](C(=O)N[C@@H](CC(=O)O)C(=O)N[C@@H](CCCNC(=N)N)C(N)=O)NC(=O)[C@H](Cc2ccccc2)NC(=O)[C@H](CCC(=O)O)NC(=O)[C@H]([C@@H](C)O)NC(=O)[C@@H]2CCCN2C(=O)[C@@H]2CCCN2C1=O
notes: also called 3BP-3299
B9: Hex-[Cys(3MeBn)-Pro-Pro-Thr-Glu-Phe-Cys]-Asp-Omp-Arg-NH2 (peptide)
peptide: Hexanoyl-CPPTEFCD[Omp]R-NH2
modifications: linker 1-7 via mXylylene; reading uncertain; also: printed as Hex-[Cys(3MeBn)-Pro-Pro-Thr-Glu-Phe-Cys]-Asp-Omp-Arg-NH2
notes: also called 3BP-3302
B10: Hex-[Cys(3MeBn)-Pro-Pro-Thr-Glu-Phe-Cys]-Asp-His-Phe-Arg-Asp-NH2 (peptide)
peptide: Hexanoyl-CPPTEFCDHFRD-NH2
modifications: linker 1-7 via mXylylene
SMILES: CCCCCC(=O)N[C@H]1CSCc2cccc(c2)CSC[C@@H](C(=O)N[C@@H](CC(=O)O)C(=O)N[C@@H](Cc2c[nH]cn2)C(=O)N[C@@H](Cc2ccccc2)C(=O)N[C@@H](CCCNC(=N)N)C(=O)N[C@@H](CC(=O)O)C(N)=O)NC(=O)[C@H](Cc2ccccc2)NC(=O)[C@H](CCC(=O)O)NC(=O)[C@H]([C@@H](C)O)NC(=O)[C@@H]2CCCN2C(=O)[C@@H]2CCCN2C1=O
B11: DOTA-Ttds-Nle-[Cys(3MeBn)-Pro-Pro-Thr-Gln-Phe-Cys]-Asp-NH2 (peptide)
peptide: {DOTA}-[Ttds(4)][Nle]CPPTQFCD-NH2
modifications: linker 3-9 via mXylylene
SMILES: CCCC[C@H](NC(=O)CCC(=O)NCCCOCCOCCOCCCNC(=O)CN1CCN(CC(=O)O)CCN(CC(=O)O)CCN(CC(=O)O)CC1)C(=O)N[C@H]1CSCc2cccc(c2)CSC[C@@H](C(=O)N[C@@H](CC(=O)O)C(N)=O)NC(=O)[C@H](Cc2ccccc2)NC(=O)[C@H](CCC(N)=O)NC(=O)[C@H]([C@@H](C)O)NC(=O)[C@@H]2CCCN2C(=O)[C@@H]2CCCN2C1=O
notes: also called 3BP-3401
B12: Hex-[Cys(3MeBn)-Pro-Pro-Thr-Glu-Phe-Cys]-Asp-Gab-Arg-NH2 (peptide)
peptide: Hexanoyl-CPPTEFCD[GABA]R-NH2
modifications: linker 1-7 via mXylylene
SMILES: CCCCCC(=O)N[C@H]1CSCc2cccc(c2)CSC[C@@H](C(=O)N[C@@H](CC(=O)O)C(=O)NCCCC(=O)N[C@@H](CCCNC(=N)N)C(N)=O)NC(=O)[C@H](Cc2ccccc2)NC(=O)[C@H](CCC(=O)O)NC(=O)[C@H]([C@@H](C)O)NC(=O)[C@@H]2CCCN2C(=O)[C@@H]2CCCN2C1=O
notes: also called 3BP-3300
B13: Hex-[Cys(3MeBn)-Pro-Pro-Thr-Gln-Phe-Cys]-Asp-Ttds-Lys(DOTA)-NH2 (peptide)
peptide: Hexanoyl-CPPTQFCD[Ttds″]K(DOTA)-NH2
modifications: linker 1-7 via mXylylene
SMILES: CCCCCC(=O)N[C@H]1CSCc2cccc(c2)CSC[C@@H](C(=O)N[C@@H](CC(=O)O)C(=O)NCCCOCCOCCOCCCNC(=O)CCC(=O)N[C@@H](CCCCNC(=O)CN2CCN(CC(=O)O)CCN(CC(=O)O)CCN(CC(=O)O)CC2)C(N)=O)NC(=O)[C@H](Cc2ccccc2)NC(=O)[C@H](CCC(N)=O)NC(=O)[C@H]([C@@H](C)O)NC(=O)[C@@H]2CCCN2C(=O)[C@@H]2CCCN2C1=O
notes: also called 3BP-3395
B14: Hex-[Cys(3MeBn)-Pro-Pro-Thr-Glu-Phe-Cys]-Asp-Ttds-Lys(DOTA)-NH2 (peptide)
peptide: Hexanoyl-CPPTEFCD[Ttds″]K(DOTA)-NH2
modifications: linker 1-7 via mXylylene
SMILES: CCCCCC(=O)N[C@H]1CSCc2cccc(c2)CSC[C@@H](C(=O)N[C@@H](CC(=O)O)C(=O)NCCCOCCOCCOCCCNC(=O)CCC(=O)N[C@@H](CCCCNC(=O)CN2CCN(CC(=O)O)CCN(CC(=O)O)CCN(CC(=O)O)CC2)C(N)=O)NC(=O)[C@H](Cc2ccccc2)NC(=O)[C@H](CCC(=O)O)NC(=O)[C@H]([C@@H](C)O)NC(=O)[C@@H]2CCCN2C(=O)[C@@H]2CCCN2C1=O
notes: also called 3BP-3396
B15: Pentyl-SO2-[Cys(3MeBn)-Pro-Pro-Thr-Gln-Phe-Cys]-Asp-NH2 (peptide)
peptide: Pentanesulfonyl-CPPTQFCD-NH2
modifications: linker 1-7 via mXylylene
SMILES: CCCCCS(=O)(=O)N[C@H]1CSCc2cccc(c2)CSC[C@@H](C(=O)N[C@@H](CC(=O)O)C(N)=O)NC(=O)[C@H](Cc2ccccc2)NC(=O)[C@H](CCC(N)=O)NC(=O)[C@H]([C@@H](C)O)NC(=O)[C@@H]2CCCN2C(=O)[C@@H]2CCCN2C1=O
notes: also called 3BP-3514

Assays:
[1] = biological target: T1, Recombinant human FAP (R&D systems, #3715-SE) (human, UniProt Q12884 26-760); experiment: SPR (Biacore T200), FAP captured on anti-FAP antibody, single cycle kinetics
T1 construct: bought; in SPR captured on immobilized anti-FAP antibody MAB3715; also called rhFAP; human recombinant FAP

[2] = biological target: Recombinant human FAP (R&D systems, #3715-SE) (human, UniProt Q12884 26-760); experiment: cell-based or functional assay
[3] = biological target: T2, fibroblast activation protein (FAP) on FAP-expressing human WI-38 fibroblasts (human, UniProt Q12884 1-760); experiment: competitive FACS, WI-38 cells, vs Cy5 tracer m3; A = pIC50 >8.0
T2 construct: also called human FAP

Row | Binder | pKD Category [1] | pIC50 Category (Activity) [2] | pIC50 Category (FACS) [3]
1 | Hexanoyl-CPPTQFCD-NH2 (linker 1-7 via tMeBn(InDOTA-PP); also: In complex (InDOTA), also called 3BP-3590) [Hex-[Cys(tMeBn(InDOTA-PP))-Pro-Pro-Thr-Gln-Phe-Cys]-Asp-NH2] | > 8 pKD |  | 
2 | Hexanoyl-CPPTQFCD-{NH(CH2)5NH2-DOTA′} (linker 1-7 via mXylylene, also called 3BP-3403) [Hex-[Cys(3MeBn)-Pro-Pro-Thr-Gln-Phe-Cys]-Asp-Ape-NH-DOTA′] | > 8 pKD |  | 
3 | B1 | > 8 pKD |  | 
4 | Hexanoyl-CPPTQFCG-OH (linker 1-7 via tMeBn(DOTA-AET), also called 3BP-3656) [Hex-[Cys(tMeBn(DOTA-AET))-Pro-Pro-Thr-Gln-Phe-Cys]-Gly-OH] | > 8 pKD |  | 
5 | Hexanoyl-CPPTQFCS-OH (linker 1-7 via tMeBn(DOTA-AET), also called 3BP-3658) [Hex-[Cys(tMeBn(DOTA-AET))-Pro-Pro-Thr-Gln-Phe-Cys]-Ser-OH] | > 8 pKD |  | 
6 | B2 |  | > 8 pIC50 | > 8 pIC50
7 | B3 | > 8 pKD |  | 
8 | B4 |  | > 8 pIC50 | > 8 pIC50
9 | B5 | > 8 pKD |  | 
10 | B6 | > 8 pKD |  | 
11 | Hexanoyl-CPPTQFCD-NH2 (linker 1-7 via tMeBn(LuDOTA-PP); also: Lu complex (LuDOTA), also called 3BP-3591) [Hex-[Cys(tMeBn(LuDOTA-PP))-Pro-Pro-Thr-Gln-Phe-Cys]-Asp-NH2] | > 8 pKD |  | 
12 | B7 | > 8 pKD |  | 
13 | Hexanoyl-CPPTEFC-NH2 (linker 1-7 via tMeBn(DOTA-AET), also called 3BP-3653) [Hex-[Cys(tMeBn(DOTA-AET))-Pro-Pro-Thr-Glu-Phe-Cys]-NH2] | > 8 pKD |  | 
14 | B8 |  | > 8 pIC50 | > 8 pIC50
15 | B9 |  | > 8 pIC50 | > 8 pIC50
16 | B10 | > 8 pKD |  | 
17 | B11 | > 8 pKD |  | 
18 | B12 | > 8 pKD |  | 
19 | B13 | > 8 pKD |  | 
20 | B14 | > 8 pKD |  | 
21 | B15 | > 8 pKD |  | 
